Laboratory results from paper PMC8298264, “Function of cofactor Akirin2 in the regulation of gene expression in model human neutrophil-like HL60 cells” (Bioscience Reports, 2021).

Test system: human HL60 cells
Assay: SWATH-MS proteomics, differential protein representation, akirin2 KO vs WT HL60 cells
Assay type: cell-based
Conditions: akirin2 KO vs WT HL60 cells
Summary of the method: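 Three biological replicates per genotype; 150 µg protein FASP/trypsin digested; IDA library (3 µg digest); SWATH variable windows, 5 µg/sample, 3.6 s cycle; gradient 5–30% B 120 min then 30–60% B 15 min; 1% global FDR; TAS normalization.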

[1] = SWATH-MS, over-represented in KO

Molecule	Fold Change (sheet "Over-represented in KO")	Log (Fold Change) (sheet "Over-represented in KO")	Fold Change [1]	Log (Fold Change) [1]
sp¦O75083¦WDR1_HUMAN (protein, UniProt O75083 1-606, looked up) WD repeat-containing protein 1: MPYEIKKVFASLPQVERGVSKIIGGDPKGNNFLYTNGKCVILRNIDNPALADIYTEHAHQVVVAKYAPSGFYIASGDVSGKLRIWDTTQKEHLLKYEYQPFAGKIKDIAWTEDSKRIAVVGEGREKFGAVFLWDSGSSVGEITGHNKVINSVDIKQSRPYRLATGSDDNCAAFFEGPPFKFKFTIGDHSRFVNCVRFSPDGNRFATASADGQIYIYDGKTGEKVCALGGSKAHDGGIYAISWSPDSTHLLSASGDKTSKIWDVSVNSVVSTFPMGSTVLDQQLGCLWQKDHLLSVSLSGYINYLDRNNPSKPLHVIKGHSKSIQCLTVHKNGGKSYIYSGSHDGHINYWDSETGENDSFAGKGHTNQVSRMTVDESGQLISCSMDDTVRYTSLMLRDYSGQGVVKLDVQPKCVAVGPGGYAVVVCIGQIVLLKDQRKCFSIDNPGYEPEVVAVHPGGDTVAIGGVDGNVRLYSILGTTLKDEGKLLEAKGPVTDVAYSHDGAFLAVCDASKVVTVFSVADGYSENNVFYGHHAKIVCLAWSPDNEHFASGGMDMMVYVWTLSDPETRVKIQDAHRLHHVSSLAWLDEHTLVTTSHDASVKEWTITY	1.216	0.0848	–	–
sp¦Q8WU90¦ZC3HF_HUMAN (protein, UniProt Q8WU90 1-426, looked up) Zinc finger CCCH …: MPPKKQAQAGGSKKAEQKKKEKIIEDKTFGLKNKKGAKQQKFIKAVTHQVKFGQQNPRQVAQSEAEKKLKKDDKKKELQELNELFKPVVAAQKISKGADPKSVVCAFFKQGQCTKGDKCKFSHDLTLERKCEKRSVYIDARDEELEKDTMDNWDEKKLEEVVNKKHGEAEKKKPKTQIVCKHFLEAIENNKYGWFWVCPGGGDICMYRHALPPGFVLKKDKKKEEKEDEISLEDLIERERSALGPNVTKITLESFLAWKKRKRQEKIDKLEQDMERRKADFKAGKALVISGREVFEFRPELVNDDDEEADDTRYTQGTGGDEVDDSVSVNDIDLSLYIPRDVDETGITVASLERFSTYTSDKDENKLSEASGGRAENGERSDLEEDNEREGTENGAIDAVPVDENLFTGEDLDELEEELNTLDLEE	1.158	0.06384	–	–
sp¦P10620¦MGST1_HUMAN (protein, UniProt P10620 1-155, looked up) Microsomal glutathione …: MVDLTQVMDDEVFMAFASYATIILSKMMLMSTATAFYRLTRKVFANPEDCVAFGKGENAKKYLRTDDRVERVRRAHLNDLENIIPFLGIGLLYSLSGPDPSTAILHFRLFVGARIYHTIAYLTPLPQPNRALSFFVGYGVTLSMAYRLLKSKLYL	1.217	0.08527	–	–
sp¦P28074¦PSB5_HUMAN (protein, UniProt P28074 60-263, looked up) Proteasome subunit beta type-5: TTTLAFKFRHGVIVAADSRATAGAYIASQTVKKVIEINPYLLGTMAGGAADCSFWERLLARQCRIYELRNKERISVAAASKLLANMVYQYKGMGLSMGTMICGWDKRGPGLYYVDSEGNRISGATFSVGSGSVYAYGVMDRGYSYDLEVEQAYDLARRAIYQATYRDAYSGGAVNLYHVREDGWIRVSSDNVADLHEKYSGSTP	1.209	0.08243	–	–
sp¦P82979¦SARNP_HUMAN (protein, UniProt P82979 2-210, looked up) SAP domain-containing …: ATETVELHKLKLAELKQECLARGLETKGIKQDLIHRLQAYLEEHAEEEANEEDVLGDETEEEETKPIELPVKEEEPPEKTVDVAAEKKVVKITSEIPQTERMQKRAERFNVPVSLESKKAARAARFGISSVPTKGLSSDNKPMVNLDKLKERAQRFGLNVSSISRKSEDDEKLKKRKERFGIVTSSAGTGTTEDTEAKKRKRAERFGIA	1.173	0.06929	–	–
Peroxiredoxin-2 (protein, UniProt P32119 2-198, looked up) Peroxiredoxin-2: ASGNARIGKPAPDFKATAVVDGAFKEVKLSDYKGKYVVLFFYPLDFTFVCPTEIIAFSNRAEDFRKLGCEVLGVSVDSQFTHLAWINTPRKEGGLGPLNIPLLADVTRRLSEDYGVLKTDEGIAYRGLFIIDGKGVLRQITVNDLPVGRSVDEALRLVQAFQYTDEHGEVCPAGWKPGSDTIKPNVDDSKEYFSKHN	–	–	2.923	0.4659
sp¦P13667¦PDIA4_HUMAN (protein, UniProt P13667 21-645, looked up) Protein disulfide-isomerase A4: VAGAEGPDEDSSNRENAIEDEEEEEEEDDDEEEDDLEVKEENGVLVLNDANFDNFVADKDTVLLEFYAPWCGHCKQFAPEYEKIANILKDKDPPIPVAKIDATSASVLASRFDVSGYPTIKILKKGQAVDYEGSRTQEEIVAKVREVSQPDWTPPPEVTLVLTKENFDEVVNDADIILVEFYAPWCGHCKKLAPEYEKAAKELSKRSPPIPLAKVDATAETDLAKRFDVSGYPTLKIFRKGRPYDYNGPREKYGIVDYMIEQSGPPSKEILTLKQVQEFLKDGDDVIIIGVFKGESDPAYQQYQDAANNLREDYKFHHTFSTEIAKFLKVSQGQLVVMQPEKFQSKYEPRSHMMDVQGSTQDSAIKDFVLKYALPLVGHRKVSNDAKRYTRRPLVVVYYSVDFSFDYRAATQFWRSKVLEVAKDFPEYTFAIADEEDYAGEVKDLGLSESGEDVNAAILDESGKKFAMEPEEFDSDTLREFVTAFKKGKLKPVIKSQPVPKNNKGPVKVVVGKTFDSIVMDPKKDVLIEFYAPWCGHCKQLEPVYNSLAKKYKGQKGLVIAKMDATANDVPSDRYKVEGFPTIYFAPSGDKKNPVKFEGGDRDLEHLSKFIEEHATKLSRTKEEL	1.162	0.06526	–	–
sp¦P25788¦PSA3_HUMAN (protein, UniProt P25788 2-255, looked up) Proteasome subunit alpha …: SSIGTGYDLSASTFSPDGRVFQVEYAMKAVENSSTAIGIRCKDGVVFGVEKLVLSKLYEEGSNKRLFNVDRHVGMAVAGLLADARSLADIAREEASNFRSNFGYNIPLKHLADRVAMYVHAYTLYSAVRPFGCSFMLGSYSVNDGAQLYMIDPSGVSYGYWGCAIGKARQAAKTEIEKLQMKEMTCRDIVKEVAKIIYIVHDEVKDKAFELELSWVGELTNGRHEIVPKDIREEAEKYAKESLKEEDESDDDNM	1.227	0.08878	–	–
sp¦Q15424¦SAFB1_HUMAN (protein, UniProt Q15424 2-915, looked up) Scaffold attachment factor B1: AETLSGLGDSGAAGAAALSSASSETGTRRLSDLRVIDLRAELRKRNVDSSGNKSVLMERLKKAIEDEGGNPDEIEITSEGNKKTSKRSSKGRKPEEEGVEDNGLEENSGDGQEDVETSLENLQDIDIMDISVLDEAEIDNGSVADCVEDDDADNLQESLSDSRELVEGEMKELPEQLQEHAIEDKETINNLDTSSSDFTILQEIEEPSLEPENEKILDILGETCKSEPVKEESSELEQPFAQDTSSVGPDRKLAEEEDLFDSAHPEEGDLDLASESTAHAQSSKADSLLAVVKREPAEQPGDGERTDCEPVGLEPAVEQSSAASELAEASSEELAEAPTEAPSPEARDSKEDGRKFDFDACNEVPPAPKESSTSEGADQKMSSPEDDSDTKRLSKEEKGRSSCGRNFWVSGLSSTTRATDLKNLFSKYGKVVGAKVVTNARSPGARCYGFVTMSTAEEATKCINHLHKTELHGKMISVEKAKNEPVGKKTSDKRDSDGKKEKSSNSDRSTNLKRDDKCDRKDDAKKGDDGSGEKSKDQDDQKPGPSERSRATKSGSRGTERTVVMDKSKGVPVISVKTSGSKERASKSQDRKSASREKRSVVSFDKVKEPRKSRDSESHSRVRERSEREQRMQAQWEREERERLEIARERLAFQRQRLERERMERERLERERMHVEHERRREQERIHREREELRRQQELRYEQERRPAVRRPYDLDRRDDAYWPEAKRAALDERYHSDFNRQDRFHDFDHRDRGRYPDHSVDRREGSRSMMGEREGQHYPERHGGPERHGRDSRDGWGGYGSDKRMSEGRGLPPPPRRDWGDHGRREDDRSWQGTADGGMMDRDHKRWQGGERSMSGHSGPGHMMNRGGMSGRGSFAPGGASRGHPIPHGGMQGGFGGQSRGSRPSDARFTRRY	1.249	0.09669	–	–
sp¦Q9UKX7¦NUP50_HUMAN (protein, UniProt Q9UKX7 1-468, looked up) Nuclear pore complex protein …: MAKRNAEKELTDRNWDQEDEAEEVGTFSMASEEVLKNRAIKKAKRRNVGFESDTGGAFKGFKGLVVPSGGGRFSGFGSGAGGKPLEGLSNGNNITSAPPFASAKAAADPKVAFGSLAANGPTTLVDKVSNPKTNGDSQQPSSSGLASSKACVGNAYHKQLAALNCSVRDWIVKHVNTNPLCDLTPIFKDYEKYLANIEQQHGNSGRNSESESNKVAAETQSPSLFGSTKLQQESTFLFHGNKTEDTPDKKMEVASEKKTDPSSLGATSASFNFGKKVDSSVLGSLSSVPLTGFSFSPGNSSLFGKDTTQSKPVSSPFPTKPLEGQAEGDSGECKGGDEEENDEPPKVVVTEVKEEDAFYSKKCKLFYKKDNEFKEKGIGTLHLKPTANQKTQLLVRADTNLGNILLNVLIPPNMPCTRTGKNNVLIVCVPNPPIDEKNATMPVTMLIRVKTSEDADELHKILLEKKDA	1.164	0.06601	–	–
sp¦O60925¦PFD1_HUMAN (protein, UniProt O60925 2-122, looked up) Prefoldin subunit 1: AAPVDLELKKAFTELQAKVIDTQQKVKLADIQIEQLNRTKKHAHLTDTEIMTLVDETNMYEGVGRMFILQSKEAIHSQLLEKQKIAEEKIKELEQKKSYLERSVKEAEDNIREMLMARRAQ	1.213	0.08377	–	–
sp¦P55145¦MANF_HUMAN (protein, UniProt P55145 25-182, looked up) Mesencephalic …: LRPGDCEVCISYLGRFYQDLKDRDVTFSPATIENELIKFCREARGKENRLCYYIGATDDAATKIINEVSKPLAHHIPVEKICEKLKKKDSQICELKYDKQIDLSTVDLKKLRVKELKKILDDWGETCKGCAEKSDYIRKINELMPKYAPKAASARTDL	1.173	0.06948	–	–
sp¦P20618¦PSB1_HUMAN (protein, UniProt P20618 29-241, looked up) Proteasome subunit beta type-1: RFSPYVFNGGTILAIAGEDFAIVASDTRLSEGFSIHTRDSPKCYKLTDKTVIGCSGFHGDCLTLTKIIEARLKMYKHSNNKAMTTGAIAAMLSTILYSRRFFPYYVYNIIGGLDEEGKGAVYSFDPVGSYQRDSFKAGGSASAMLQPLLDNQVGFKNMQNVEHVPLSLDRAMRLVKDVFISAAERDVYTGDALRICIVTKEGIREETVSLRKD	1.163	0.06574	–	–
sp¦P46926¦GNPI1_HUMAN (protein, UniProt P46926 1-289, looked up) Glucosamine-6-phosphate …: MKLIILEHYSQASEWAAKYIRNRIIQFNPGPEKYFTLGLPTGSTPLGCYKKLIEYYKNGDLSFKYVKTFNMDEYVGLPRDHPESYHSFMWNNFFKHIDIHPENTHILDGNAVDLQAECDAFEEKIKAAGGIELFVGGIGPDGHIAFNEPGSSLVSRTRVKTLAMDTILANARFFDGELTKVPTMALTVGVGTVMDAREVMILITGAHKAFALYKAIEEGVNHMWTVSAFQQHPRTVFVCDEDATLELKVKTVKYFKGLMLVHNKLVDPLYSIKEKETEKSQSSKKPYSD	1.154	0.06211	–	–
